Measured values reported in PMC6168074 (Cell reports, 2017).

Tests used:
[1] = target: T1, Damb (DAMB) (Drosophila melanogaster, UniProt Q24563); experiment: real-time BRET G protein activation assay, HEK293T/[…] cells; format: cell-based
T1 sequence (Q24563 1-539): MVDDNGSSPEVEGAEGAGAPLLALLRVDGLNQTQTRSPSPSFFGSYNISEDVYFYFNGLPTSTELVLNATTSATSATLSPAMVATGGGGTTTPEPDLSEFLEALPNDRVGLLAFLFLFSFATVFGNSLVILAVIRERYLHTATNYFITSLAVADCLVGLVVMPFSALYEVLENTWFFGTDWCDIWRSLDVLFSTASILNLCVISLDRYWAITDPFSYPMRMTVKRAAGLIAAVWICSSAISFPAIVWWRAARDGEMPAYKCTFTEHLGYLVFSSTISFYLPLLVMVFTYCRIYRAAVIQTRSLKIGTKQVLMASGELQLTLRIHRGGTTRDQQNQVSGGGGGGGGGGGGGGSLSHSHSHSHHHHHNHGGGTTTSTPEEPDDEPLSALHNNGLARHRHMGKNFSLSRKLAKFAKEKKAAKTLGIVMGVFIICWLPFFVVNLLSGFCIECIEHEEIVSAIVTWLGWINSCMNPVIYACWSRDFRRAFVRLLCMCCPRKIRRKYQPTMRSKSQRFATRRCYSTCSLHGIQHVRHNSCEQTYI

[2] = target: Drosophila Gαq isoform G (Drosophila)
[3] = target: Drosophila Gαs isoform A (Drosophila)

In the case of `NCCc1ccc(O)c(O)c1` [dopamine], the EC50 [1] is reported as 56.7 ± 7.7 nM.

B1: Damb (DopAmine receptor expressed in Mushroom Bodies) (receptor)
chain: T1 sequence (Q24563 1-539)
In the case of B1, the rate of G protein activation (BRET, 100 μM DA, HEK293T/17 cells) [2] is reported as 2.71 s⁻¹ and the rate of G protein activation (BRET, 100 μM DA, HEK293T/17 cells) [3] is reported as 0.46 s⁻¹.
